Target: GSK3β used in the surface plasmon resonance binding assays (UniProt P49841 1-420)
Assay: SPR

Chain of GSK3β used in the surface plasmon resonance binding assays (P49841 whole entry): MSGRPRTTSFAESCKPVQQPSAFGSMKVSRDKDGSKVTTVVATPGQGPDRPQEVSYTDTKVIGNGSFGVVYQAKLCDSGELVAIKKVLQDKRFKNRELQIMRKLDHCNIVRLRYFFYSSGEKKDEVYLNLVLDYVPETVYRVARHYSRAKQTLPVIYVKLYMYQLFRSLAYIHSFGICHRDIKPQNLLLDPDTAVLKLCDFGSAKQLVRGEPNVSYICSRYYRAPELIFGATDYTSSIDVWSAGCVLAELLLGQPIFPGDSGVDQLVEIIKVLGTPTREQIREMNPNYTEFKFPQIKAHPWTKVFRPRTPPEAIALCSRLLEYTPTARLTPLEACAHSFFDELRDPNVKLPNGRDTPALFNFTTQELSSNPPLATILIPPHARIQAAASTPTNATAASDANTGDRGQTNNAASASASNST

**Q.** PADIASLPGFQDTFTSSFSFIQLSLGAAGERGEAEGCLPSREAE (peptide, UniProt Q811T9 195-238, looked up) [DISCtide-1 (mDISC1 amino acids 195 to 238)] was tested. Which “stoichiometry N” value did it give?
**A.** 2 peptide:protein

**Q.** Which “stoichiometry N” value does the source give for SFSFIQLSLGAAGER (peptide, UniProt Q811T9 211-225, looked up) [DISCtide2 (15-mer peptide, mDISC1 amino acids 211 to 225)] here?
**A.** 2 peptide:protein
